Experimental data taken from US10047131B2, “Peptides and combination of peptides for use in immunotherapy against ovarian cancer and other cancers” (immatics biotechnologies GmbH, priority 2015, dated 2018).

Molecular target: HLA-A*02:01 (Homo sapiens, UniProt P04439, D140Y/D185E/D98H/E176V/E277Q/G131W/G231S/I119V/I121R/I166T/I218V/L300P/L318F/N151K/N90K/P208A/P217A/Q86G/Q94H/R138H/R169H/T345S)
Test: MHC binding assay (UV-ligand exchange, ELISA of exchange yield)
Conditions: binding to HLA-A*02:01, UV-ligand exchange
Method in brief: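 Peptide–MHC complexes made by UV-ligand exchange, where a UV-cleavable peptide is replaced by the test peptide. Exchange yield measured by ELISA: complexes diluted 100-fold on streptavidin-coated plates, stabilized complexes detected with HRP anti-β2m, TMB read at 450 nm.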

Question: For “174 (ALAQYLITA; listed as Homo sapiens) [compound 174]”, which “Peptide exchange (MHC class I binding score, peptide exchange yield)” value (“Peptide exchange” for short) is on record?
Answer: The value was ““+++” (≥50 = +++)”.

Question: “566 (VIADGGIQNV; listed as Homo sapiens) [compound 566]” was tested. Which “Peptide exchange” value did it give?
Answer: The value was ““++” (≥20% = ++)”.

Question: How did the “Peptide exchange” value turn out when “315 (YLQDVVEQA; listed as Homo sapiens) [compound 315]” was run?
Answer: Its value is ““+++” (≥50 = +++)”.

Question: Which “Peptide exchange” value does the source give for “43 (VLSSLEINI; listed as Homo sapiens) [compound 43]” here?
Answer: Its value is ““++” (≥20% = ++)”.

Question: Which “Peptide exchange” value does the source give for “394 (LLAVIGGLVYL; listed as Homo sapiens) [compound 394]” here?
Answer: Its value is ““+++” (≥50 = +++)”.

Question: Which “Peptide exchange” value does the source give for “128 (YLFDDPLSAV; listed as Homo sapiens) [compound 128]” here?
Answer: The value was ““++” (≥20% = ++)”.

Question: With “353 (YLFEMDSSL; listed as Homo sapiens) [compound 353]” as the substance, how does the “Peptide exchange” value read?
Answer: Its value is ““++” (≥20% = ++)”.

Question: “306 (ALVNVQIPL; listed as Homo sapiens) [compound 306]” was tested. Which “Peptide exchange” value did it give?
Answer: Its value is ““+++” (≥50 = +++)”.

Question: With “212 (ALWDQDNLSV; listed as Homo sapiens) [compound 212]” as the substance, how does the “Peptide exchange” value read?
Answer: The value was ““++” (≥20% = ++)”.

Question: For “274 (SLLFSLFEA; listed as Homo sapiens) [compound 274]”, which “Peptide exchange” value is on record?
Answer: The value was ““++” (≥20% = ++)”.

Question: For “489 (KMWEELPEVV; listed as Homo sapiens) [compound 489]”, which “Peptide exchange” value is on record?
Answer: The value was ““+++” (≥50 = +++)”.

Question: Which “Peptide exchange” value does the source give for “572 (ALADLIEKELSV; listed as Homo sapiens) [compound 572]” here?
Answer: Its value is ““+++” (≥50 = +++)”.

Question: With “68 (SLMELPRGLFL; listed as Homo sapiens) [compound 68]” as the substance, how does the “Peptide exchange” value read?
Answer: The value was ““++++” (≥75% = ++++)”.

Question: “195 (GLFADLLPRL; listed as Homo sapiens) [compound 195]” was tested. Which “Peptide exchange” value did it give?
Answer: Its value is ““+++” (≥50 = +++)”.

Question: Which “Peptide exchange” value does the source give for “239 (AAFAGKLLSV; listed as Homo sapiens) [compound 239]” here?
Answer: The value was ““+++” (≥50 = +++)”.

Question: Which “Peptide exchange” value does the source give for “219 (KLSDIGITV; listed as Homo sapiens) [compound 219]” here?
Answer: The value was ““+++” (≥50 = +++)”.

Question: “308 (SQYSGQLHEV; listed as Homo sapiens) [compound 308]” was tested. Which “Peptide exchange” value did it give?
Answer: Its value is ““+++” (≥50 = +++)”.
